To fix the notation:
B1: Hypoxia-inducible factor prolyl hydroxylase (Caenorhabditis elegans), G5EBV0 (parent)
chain: MSSAPNDDCEIDKGTPSTASLFTTLMLSQPSSSTAVLQCTYCGSSCTSSQLQTCLFCGTVAYCSKEHQQLDWLTHKMICKSLQTSGMVPSNLMPQAAPAVMAPIPPTVSFDDPALTTSLLLSLQNNPILNQTISNFPPTFSITSKTEPEPSIPIQIPQRISSTSTVPFSSEGSAFKPYRNTHVFNSISSESMSSMCTSHEASLEHMSSASLAMFPTSSTAQSDISRLAQVLSLAGDSPASLALVTTSVPSTASTATIPPPATTTSSATSSGKSETITVGKEKIIQTDDPDIQIIETEGGSKPTVSRTRKRPTPSNSADPKINYKDHNKNVVYSTTLQEHQKHLQNRGLALSIHQAMVLRLRYIAEHVIRSLNEFGWAVVDNFLGSDHYKFTAKEIERLYERGLFSPGQLMEAKHKDEFHIKDIRSDHIYWYDGYDGRAKDAATVRLLISMIDSVIQHFKKRIDHDIGGRSRAMLAIYPGNGTRYVKHVDNPVKDGRCITTIYYCNENWDMATDGGTLRLYPETSMTPMDIDPRADRLVFFWSDRRNPHEVMPVFRHRFAITIWYMDKSERDKALAKGKESDAACASKKENDPTSSSLNSLIGSLLRPRKNPSTHDLSKLDLRLFPSTSSDPALVSAADEDRVDISADFQSTSSLAHPESTDSGVSLSTFNVAHNHMERTTSLQSISDHFRSERSHERRSSTSSDQDLDEGLPPPPSTNPEYYI
partner: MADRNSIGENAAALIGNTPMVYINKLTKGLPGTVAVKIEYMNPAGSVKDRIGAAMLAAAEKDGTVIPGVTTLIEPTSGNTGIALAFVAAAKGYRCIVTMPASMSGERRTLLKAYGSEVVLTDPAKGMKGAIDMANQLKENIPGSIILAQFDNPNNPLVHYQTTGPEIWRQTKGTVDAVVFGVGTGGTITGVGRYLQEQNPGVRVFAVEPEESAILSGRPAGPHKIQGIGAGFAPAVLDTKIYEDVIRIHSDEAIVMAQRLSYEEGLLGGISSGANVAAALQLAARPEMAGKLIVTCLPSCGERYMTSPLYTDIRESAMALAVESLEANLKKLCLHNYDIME

The variants in one experiment derive from B1. Particulars: with cysk1_caeel cysl-1, Q93244.
I723A: the “effect of a mutation on the interaction” value is “decreasing interaction strength”.

With E720K, the “effect of a mutation on the interaction” value was “decreasing interaction strength”.

A further experiment covers variants of B1. The note with it: with cysk1_caeel cysl-1, Q93244. This is another data set of the same source.
E720K: the “effect of a mutation on the interaction” value is reported as “disrupting interaction strength”.

For the origin of these results see IntAct's records for PubMed 22405203.
